# Assay results published in patent publication US20230159632A1 (SHANGHAI JUNSHI BIOSCIENCES, published 2023).
# Where a chain is given by its changes, count along the chain named.
# T1: recombinant human IL-17A-mFc protein (human, UniProt Q16552 24-155, Biotinylated before the blocking assays of Examples 9 and 12 (sites not given); disulfide-linked dimer through IL-17A and the Fc.)
# T1 construct: also called recombinant fusion protein IL-17A-mFc
# T1 sequence: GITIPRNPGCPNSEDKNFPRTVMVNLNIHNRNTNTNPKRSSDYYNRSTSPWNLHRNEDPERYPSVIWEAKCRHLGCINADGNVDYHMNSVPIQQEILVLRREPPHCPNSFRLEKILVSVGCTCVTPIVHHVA
# T2: human IL-17RA on stable IL-17RA 293F cell lines (human) (UniProt Q96F46)
# T2 sequence (looked up): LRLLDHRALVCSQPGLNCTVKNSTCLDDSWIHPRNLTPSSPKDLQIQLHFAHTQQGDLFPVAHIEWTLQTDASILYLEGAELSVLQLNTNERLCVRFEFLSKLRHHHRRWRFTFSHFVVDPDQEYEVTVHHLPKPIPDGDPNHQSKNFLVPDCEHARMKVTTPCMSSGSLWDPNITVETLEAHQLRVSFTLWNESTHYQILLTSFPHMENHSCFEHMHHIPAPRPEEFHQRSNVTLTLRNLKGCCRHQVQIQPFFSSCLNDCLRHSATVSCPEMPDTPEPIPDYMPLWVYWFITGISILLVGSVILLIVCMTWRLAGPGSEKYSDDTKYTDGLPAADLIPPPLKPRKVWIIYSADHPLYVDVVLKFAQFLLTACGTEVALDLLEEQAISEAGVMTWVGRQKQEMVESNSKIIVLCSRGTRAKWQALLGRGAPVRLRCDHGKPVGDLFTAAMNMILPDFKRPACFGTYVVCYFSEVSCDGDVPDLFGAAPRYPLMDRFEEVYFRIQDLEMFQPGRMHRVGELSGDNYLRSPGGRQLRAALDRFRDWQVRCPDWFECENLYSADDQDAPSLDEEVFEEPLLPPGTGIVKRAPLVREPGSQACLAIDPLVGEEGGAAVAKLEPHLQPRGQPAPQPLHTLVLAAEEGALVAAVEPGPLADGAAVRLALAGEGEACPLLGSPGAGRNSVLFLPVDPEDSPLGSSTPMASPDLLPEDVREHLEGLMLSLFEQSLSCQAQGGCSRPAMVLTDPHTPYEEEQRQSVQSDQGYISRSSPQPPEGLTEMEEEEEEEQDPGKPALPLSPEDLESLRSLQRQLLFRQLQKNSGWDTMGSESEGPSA
# B1: humanized antibody hu43 (antibody, human IgG4 S228P, kappa, V domains shown)
# VH: QIQLVQSGAEVKKPGASVKISCKASGYIFTNYGMNWMRQAPGQGLEWMGWINDHTGEPTYADKFQGRVTFTLDTSASTAYMELSRLRSDDTAVYYCANYGFGYFDYWGQGTLVTVSS
# VL: DVVMTQSPLSLPVTLGQPASISCRSSQSLVHSNGNSYLHWYLQKPGQSPQLLIYKVSNRFSGVPDRFSGSGSGTDFTLKISRVEAEDVGVYYCSQSTHVPYTFGQGTKLEIKR
# B2: humanized antibody hu31 (antibody, human IgG4 S228P, kappa, V domains shown)
# VH: B1 VH with I2V, I20V, A76I
# VL: B1 VL
# notes: Humanized from ch1
# B3: humanized antibody hu44 (antibody, human IgG4 S228P, kappa, V domains shown)
# VH: B1 VH
# VL: B1 VL with Y92F
# B4: humanized antibody hu59 (antibody, human IgG4 S228P, kappa, V domains shown)
# VH: QVQLQESGPGLVKPSETLSLTCTVTGYSISSDYAWSWIRQPPGKGLEWIGFISYSGPTSYNPSLKSRVTISRDTSKNQFSLKLSSVTAADTAVYYCARGGDGDSFDYWGQGTLVTVSS
# VL: DVVMTQSPLSLPVTLGQPASISCRSSQSIVHSNGNTYLDWYLQKPGKSPKLLIYKVSNRFSGVPDRFSGSGSGTDFTLKISRVEAEDLGVYYCFQGSHFPTFGQGTKLEIKR
# B5: humanized antibody hu250 (antibody, human IgG4 S228P, kappa, V domains shown)
# VH: B4 VH with T25S, S30T, S80F, K82Q, S84K, L113T
# VL: B4 VL with S7T, P12S, L15P, R24K, K47Q, L88V, Q104G, L108V
# B6: humanized antibody hu60 (antibody, human IgG4 S228P, kappa, V domains shown)
# VH: B4 VH
# VL: B4 VL with K47Q, D75S
# B7: chimeric antibody ch1 (antibody, V domains shown)
# VH: QIQLVQSGPELKKPGETVKISCKASGYIFTNYGMNWMKQAPGKGLKWMGWINDHTGEPTYADDFKGRFAFSLETSASTAYLQINNLKKEDTATYFCANYGFGYFDYWGQGTTLTVSS
# VL: DVVMTQTPLSLPVSLGDQASISCRSSQSLVHSNGNSYLHWYLQKPGQSPKLLIYKVSNRFSGVPDRFSGSGSGTDFTLKISRVEAEDLGVYFCSQSTHVPYTFGGGTKLEIK
# B8: chimeric antibody ch4 (antibody, V domains shown)
# VH: B7 VH
# VL: DVLMTQTPLSLPVSLGDQASISCRSSQSIVHSNGNTYLDWYLQKPGQSPKLLIYKVSNRFSGVPDRFSGSGSGTSFTLKISRVEAEDLGVYYCFQGSHFPTFGGGTKLEIK
# B9: chimeric antibody ch2 (antibody, V domains shown)
# VH: B7 VH
# VL: B7 VL with M4V, S26G, N35H, S36T, L38F, V90I
# B10: chimeric antibody ch7 (antibody, V domains shown)
# VH: QVQLKESGPGLVAPSQSLSITCTVSGFSLINYDIHWLRQPPGKGLEWLGVIWAGGRTHSDSALMSRLSISKDNSKSQVFLNVHSLRPEDTAIYYCAREGGDYYKYLDFWGQGTTLTVSS
# VL: DVKMTQSPSSMYASLGERVTITCKASHDINSYLSWFQQKPGKSPKTLIYRANGLVDGVPSRFSGSGSGQDYSLTISSLEYEDMGVYYCLQYEMLPLTFGAGTKLELK
# B11: chimeric antibody ch16 (antibody, V domains shown)
# VH: DVQLQESGPGLVKPSQSLSLTCTVTGYSITSDYAWSWIRQFPGNKLEWMAFISYSGPTSYNPSLKSRVSITRDTSKNQFFLQLKSVTTEDTATYYCARGGDGDSFDYWGQGTTLTVSS
# VL: B8 VL
# Target: T1, recombinant human IL-17A-mFc protein
# Assay: ELISA, human IL-17A-mFc coated (method of Example 8)
# Protocol: (§1) The binding specificity of the chimeric antibodies to human IL-17A was determined by conventional ELISA. Namely, 0.5 μg/mL of human IL-17A-mFc was immobilized on a 96-well plate and incubated for 60-90 minutes at 37° C. The solution in wells was then discarded, and the wells were washed 3 times with washing buffer, and blocked for 60 minutes with PBS containing 2% BSA. The plate was washed 3 times with washing buffer, and added with diluted chimeric antibodies at different concentrations. The antibodies were incubated at 37° C. for 60 minutes. The plate was then washed 3 times with washing buffer, and added with 10000-fold diluted biotinylated anti-IgG4 antibody. The system was incubated at 37° C. for 1 hour, washed three times with washing buffer, added with HRP-Strep 10000-fold diluted with washing buffer, and incubated at room temperature for 1 hour. After 3 washes with washing buffer, 100 μL of TMB substrate was added for color development. The system was incubated at room temperature for 30 minutes, and the reaction was terminated with 100 μL of 2 M hydrochloric acid solution. The absorbance at 450 nm was measured by a plate reader.
# The binding specificity of the humanized antibodies to human IL-17A was determined by conventional ELISA. The method and procedures are described in Example 8.
row,EC50 [µg/mL],Molecule
1,0.00864,B1
2,0.00813,B2
3,0.00676,B3
4,0.0061,B4
5,0.00635,B5
6,0.00578,B6

# Target: T1, recombinant human IL-17A-mFc protein
# Assay: ELISA, human IL-17A-mFc (0.5 µg/mL) coated, biotinylated anti-IgG4 detection
# Protocol: as §1
row,EC50 [µg/mL],Molecule
1,0.00662,B7
2,0.0885,B8
3,0.00517,B9
4,0.04,B10
5,0.0154,B11

# Target: T1, recombinant human IL-17A-mFc protein
# Assay: competitive FACS: blocks binding of biotinylated human IL-17A-mFc to IL-17RA on 293F cells
# Protocol: (§2) The blocking of binding of IL-17A to IL-17RA on cells was detected by a competitive cell-based flow cytometry (FACS) assay. Briefly, chimeric antibody dilutions of different concentrations (3-fold diluted from 10 μg/mL) were mixed with the pre-biotinylated human IL-17A-mFC (3 μg/mL) obtained in Example 1, and incubated at room temperature for 30 minutes. […] After 3 washes with PBS, 5 μg/mL of anti-mouse IgG was added and the system was incubated at room temperature for 30 minutes.
# The blocking of binding of IL-17A to IL-17RA on cells was detected by a competitive cell-based flow cytometry (FACS) assay. The method and procedures are described in Example 9.
row,IC50 [µg/mL],Molecule
1,0.781,B1
2,0.868,B2
3,0.829,B3
4,0.467,B4
5,0.578,B5
6,0.483,B6

# Target: T1, recombinant human IL-17A-mFc protein
# Assay: competitive FACS: blocks binding of biotinylated human IL-17A-mFc (3 µg/mL) to IL-17RA on 293F cells
# Protocol: as §2
row,IC50 [µg/mL],Molecule
1,4.46,B7
2,3.15,B9
3,1.22,B10
4,1.45,B11

# Target: T2, human IL-17RA on stable IL-17RA 293F cell lines (human)
# Assay: FACS, 3 µg/mL IL-17A-mFc on stable IL-17RA 293F cells, anti-mouse IgG detection; control group (1% BSA, no IL-17A-mFc) gave 308
row,MFI (mean fluorescence intensity) [MFI],Molecule
1,7700,recombinant human IL-17A-mFc protein (from UniProt Q16552 24-155) (Fc fusion)
